Experimental data reported in patent US6753317 (US Dept. of Health and Human Services, dated 2004).
Starred links: 1 amine or outer side, 2 acyl side, 3 side chain; linkers in the order of their positions; H or OH if unused. Non-standard residues stand in square brackets, D forms with d. *: point of attachment. des‑NH2‑α‑pyrrolidine‑1‑yl = Dmt (2',6'-dimethyl-L-tyrosine) with the α-amine replaced by pyrrolidine-1-yl, Cc1cc(O)cc(C)c1C[C@@H](C(=O)*)N1CCCC1; des‑NH2‑α‑piperidine‑1‑yl = Dmt (2',6'-dimethyl-L-tyrosine) with the α-amine replaced by piperidine-1-yl, Cc1cc(O)cc(C)c1C[C@@H](C(=O)*)N1CCCCC1; βTic = 1,2,3,4-tetrahydroisoquinoline-3-yl acetic acid, O=C(C[C@@H]1Cc2ccccc2CN1[*:1])[*:2]; des‑NH2‑α‑pyrrole‑1‑yl = replacement of the α-amino group by a pyrrol-1-yl group; NH(1-Adamantyl) = C1C2CC3CC1CC(N*)(C2)C3; Dmt = Cc1cc(O)cc(C)c1C[C@H](N)C(=O)O; NH‑tetrazole‑5‑yl = n1nc(N*)n[nH]1; Tic = O=C(O)[C@@H]1Cc2ccccc2CN1; dTic = O=C(O)[C@H]1Cc2ccccc2CN1; NHtBu = CC(C)(C)N*

B1: H-Dmt-Tic-NH-1-adamantane (peptide)
peptide: H-[Dmt]-[Tic]-{NH(1-Adamantyl)}
SMILES: Cc1cc(O)cc(C)c1C[C@H](N)C(=O)N1Cc2ccccc2C[C@H]1C(=O)NC12CC3CC(CC(C3)C1)C2
B2: H-Dmt-Tic-Ala-NH-tBu (peptide)
peptide: H-[Dmt]-[Tic]-Ala-NHtBu
SMILES: Cc1cc(O)cc(C)c1C[C@H](N)C(=O)N1Cc2ccccc2C[C@H]1C(=O)N[C@@H](C)C(=O)NC(C)(C)C

target: T1, µ-opioid receptor of the guinea pig ileum (GPI) (guinea pig); test: cell-based or functional assay

For H-Y[dA]FGYPS-NH2 [dermorphin: H-Tyr-D-Ala-Phe-Gly-Tyr-Pro-Ser-NH2], the “IC50 (µ agonist activity, GPI)” value was 0.00182 µM.

target: T1, µ-opioid receptor of the guinea pig …; test: cell-based or functional assay; remark: another data set of the same source

Going from H-[Dmt]-[Tic]-{NH‑tetrazole‑5‑yl} [H-Dmt-Tic-NH-tetrazole-5-yl] to H-[Dmt]-[Tic]-NHMe [H-Dmt-Tic-NHMe], the “GPI ED50” value rises from 8.2 µM to > 10 µM.

H-[Dmt]-[βTic]-OH [H-Dmt-βTic-OH] and {des‑NH2‑α‑pyrrolidine‑1‑yl}-[Dmt]-[Tic]-OH [[des-NH2-α-pyrrolidine-1-yl]-Dmt-Tic-OH] cannot be ordered by “GPI ED50” value: > 10 µM for the first, > 10 µM for the second.

Compared with H-[Dmt]-[dTic]-{NH(1-Adamantyl)} [H-Dmt-D-Tic-NH-1-adamantane], H-[Dmt]-[Tic]-Ala-NH2 [H-Dmt-Tic-Ala-NH2] is 2.8-fold higher in “GPI ED50” value: 1.68 µM for the first, 4.74 µM for the second.

Going from H-[Dmt]-[Tic]-NHtBu (SMILES Cc1cc(O)cc(C)c1C[C@H](N)C(=O)N1Cc2ccccc2C[C@H]1C(=O)NC(C)(C)C) [H-Dmt-Tic-NH-tBu] to B1, the “GPI ED50” value falls from 1.04 µM to 0.036 µM (29-fold).

{N,N‑dimethyl}-[Dmt]-[Tic]-NHMe [N,N(Me)2-Dmt-Tic-NHMe] and H-[Dmt]-[Tic]-OH (also: (R,S)-Dmt, racemic, mixture of diastereomers) [H-(R,S)Dmt-Tic-OH] cannot be ordered by “GPI ED50” value: > 10 µM for the first, > 10 µM for the second.

Compared with {N,N‑dimethyl}-[Dmt]-[dTic]-{NH(1-Adamantyl)} [N,N(Me)2-Dmt-D-Tic-NH-1-adamantane], B2 is higher in “GPI ED50” value: 4.48 µM for the first, > 10 µM for the second.

Going from {des‑NH2‑α‑piperidine‑1‑yl}-[Dmt]-[Tic]-OH [[des-NH2-α-piperidine-1-yl]-Dmt-Tic-OH] to H-[Dmt]-[Tic]-Ala-NHMe (SMILES CNC(=O)[C@H](C)NC(=O)[C@@H]1Cc2ccccc2CN1C(=O)[C@@H](N)Cc1c(C)cc(O)cc1C) [H-Dmt-Tic-Ala-NHMe], the “GPI ED50” value falls from > 10 µM to 0.29 µM.

{des‑NH2‑α‑pyrrole‑1‑yl}-[Dmt]-[Tic]-OH [[des-NH2-α-pyrrole-1-yl]-Dmt-Tic-OH] and {N,N‑dimethyl}-[Dmt]-[Tic]-NHtBu [N,N(Me)2-Dmt-Tic-NH-tBu] cannot be ordered by “GPI ED50” value: > 10 µM for the first, > 10 µM for the second.

First: H-[Dmt]-[Tic]-Ala-{NH(1-Adamantyl)} [H-Dmt-Tic-Ala-NH-1-adamantane]
Second: {N,N‑dimethyl}-[Dmt]-[Tic]-{NH(1-Adamantyl)} [N,N(Me)2-Dmt-Tic-NH-1-adamantane]
The “GPI ED50” value of the first is 62-fold higher: 1 µM for the first, 0.016 µM for the second.

Compared with H-[Dmt]-[Tic]-NHMe [H-Dmt-Tic-NHMe], {N,N‑dimethyl}-[Dmt]-[Tic]-NHMe [N,N(Me)2-Dmt-Tic-NHMe] is 2.9-fold lower in “GPI Ke” value: 1.15 µM for the first, 0.39 µM for the second.

First: B2
Second: {N,N‑dimethyl}-[Dmt]-[Tic]-NHtBu [N,N(Me)2-Dmt-Tic-NH-tBu]
The “GPI Ke” value of the first is 1.8-fold lower: 0.17 µM for the first, 0.3 µM for the second.

First: H-[Dmt]-[Tic]-NHMe [H-Dmt-Tic-NHMe]
Second: {N,N‑dimethyl}-[Dmt]-[Tic]-NHMe [N,N(Me)2-Dmt-Tic-NHMe]
The “GPI pA2” value of the first is lower: 5.94 for the first, 6.41 for the second.

For B2, the “GPI pA2” value was 6.76.
